This sample holds only a part of the variants without activity.

The subject of the data set is biotinyl-Phe-oxazolone. As to the kind of experiment: self-aminoacylation, catalytic enhancement (BFO) (fold over background); higher = more active; k-Seq, kA / k0A0; sequences stand for … in GGGAAUGGAUCCACAUCUACGAAUUC…UUCACUGCAGACUUGACGAAGCUG
The procedure, abridged:
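Mutagenized RNA pools (0.43 μM; 21-nt variable region) were treated with 2–1250 μM of each biotinyl-aminoacyl-oxazolone. Conditions were 50 μL HEPES/NaCl/KCl/MgCl2/CaCl2 buffer, 5% acetonitrile, pH 6.9–7.0, room temperature, 90 minutes. Catalytic enhancement, the median kA relative to the uncatalyzed rate, was derived from streptavidin capture, qPCR and Illumina sequencing.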
Turning to “AAGUUUGCUAAUGGCCGCAAG [Fam3.1 aminoacylation ribozyme variant]”, the self-aminoacylation amounted to 4.21.
With “CCACACUUCAAACAAUCGAUC [Fam1B.1 aminoacylation ribozyme variant]”, the self-aminoacylation was determined as 2.59.
“AAGUUCGCUAGUAGUCGCAAG [Fam3.1 aminoacylation ribozyme variant]”: the self-aminoacylation worked out at 4.51.
Take “CGACACUUCAGGCAAUCGGUC [Fam1B.1 aminoacylation ribozyme variant]”: the self-aminoacylation was found to be 2.04.
On to “AAGUUUAAUAAUAGUCGCAAG [Fam3.1 aminoacylation ribozyme variant]”, for which the self-aminoacylation came out at 2.22.
The result for “AUUACCCUGGUCAUCGAGAGG [Fam2.1 aminoacylation ribozyme variant]” reads 2.47.
For the sequence “CAGUUUGCUAAUAGUCGCUAG [Fam3.1 aminoacylation ribozyme variant]”, the self-aminoacylation turned out to be 2.2.
As to “AUUCACCUAGGUCGUCGUGUG [Fam2.2 aminoacylation ribozyme variant]”, the self-aminoacylation amounted to 3.62.
As to “GAGUUUGCUAAUAGUAGCAAG [Fam3.1 aminoacylation ribozyme variant]”, the self-aminoacylation was found to be 3.32.
As to “AUUCACCUAGGUCAUCCGGUC [Fam2.2 aminoacylation ribozyme variant]”, the self-aminoacylation is 4.67.
On to “AAGUUAGCGAAUAGUCGCAAG [Fam3.1 aminoacylation ribozyme variant]”, for which the self-aminoacylation is 2.1.
As to “AAGUUUGCUAAUACUCGCGAG [Fam3.1 aminoacylation ribozyme variant]”, the self-aminoacylation amounted to 5.73.
Consider “CUACUUCAGACAAUCGGGCUG [Fam1A.1 aminoacylation ribozyme variant]”, for which the self-aminoacylation was 3.52.
With “AAGCUUGCUAAUAAUCGCAAG [Fam3.1 aminoacylation ribozyme variant]”, the self-aminoacylation worked out at 2.2.
As for “AAGUUUUCUAAUAGCCGCAAG [Fam3.1 aminoacylation ribozyme variant]”, the self-aminoacylation came to 2.19.
For the sequence “CAGUUUGCUCAUAGUCGCAAG [Fam3.1 aminoacylation ribozyme variant]”, the self-aminoacylation was found to be 2.06.
The result for “AUUACCCUGGUCAUCGUGUGU [Fam2.1 aminoacylation ribozyme variant]” reads 2.45.
Consider “AAGUUUGGUAAAAGUCGCAAG [Fam3.1 aminoacylation ribozyme variant]”, for which the self-aminoacylation was found to be 2.32.
Take “CUACUGCAAUCAAUCGGUCUG [Fam1A.1 aminoacylation ribozyme variant]”: the self-aminoacylation is 2.9.
For the sequence “AAGUUUGCUCAUAGUCGCAGG [Fam3.1 aminoacylation ribozyme variant]”, the self-aminoacylation was determined as 2.92.
Take “CCACACUUCAGGCAAUCCGUC [Fam1B.1 aminoacylation ribozyme variant]”: the self-aminoacylation amounted to 2.08.
“AAGUAUGCUAAGAGUCGCAAG [Fam3.1 aminoacylation ribozyme variant]”: the self-aminoacylation was found to be 4.08.
Turning to “AUUACCCUGGUGAUCGUGUGA [Fam2.1 aminoacylation ribozyme variant]”, the self-aminoacylation stood at 5.71.
In the case of “ACACACUUCAAGCAAUCGAUC [Fam1B.1 aminoacylation ribozyme variant]”, the self-aminoacylation amounted to 2.02.
For “AUUCACUUAGGUCGUCGGGUG [Fam2.2 aminoacylation ribozyme variant]”, the self-aminoacylation was determined as 4.92.
“CUACUGCAAACAGUCGGUCUG [Fam1A.1 aminoacylation ribozyme variant]”: the self-aminoacylation is 2.04.
For the sequence “AAGGUUGCUAAUAGUCCCAAG [Fam3.1 aminoacylation ribozyme variant]”, the self-aminoacylation worked out at 2.86.
With “ACUCACCUAGGUCAUCGUGUG [Fam2.2 aminoacylation ribozyme variant]”, the self-aminoacylation was 4.06.
As for “AUGUUUGCUAAUAGUCGGAAG [Fam3.1 aminoacylation ribozyme variant]”, the self-aminoacylation is 5.76.
Consider “CUGCUUCAAACAAUCCGUCUG [Fam1A.1 aminoacylation ribozyme variant]”, for which the self-aminoacylation was 2.71.
Then “AAGUUUGCUAACAGUCGCAGG [Fam3.1 aminoacylation ribozyme variant]”, with 3.44.
As for “AAGUAUGCUAAUAGUCGCUAG [Fam3.1 aminoacylation ribozyme variant]”, the self-aminoacylation was determined as 2.24.
Then “AUUCACCUAGGUCAUCCGGUU [Fam2.2 aminoacylation ribozyme variant]”, with 9.74.
Consider “CUACUUCAAACACUCGGUCGG [Fam1A.1 aminoacylation ribozyme variant]”, for which the self-aminoacylation came out at 5.02.
As for “CAACACUUCAAGCAAUCGGAC [Fam1B.1 aminoacylation ribozyme variant]”, the self-aminoacylation stood at 2.37.
In the case of “AAGUUAGCUAAUUGUCGCAAG [Fam3.1 aminoacylation ribozyme variant]”, the self-aminoacylation amounted to 2.54.
For the sequence “CAACUUUAAACAAUCGGUCUG [Fam1A.1 aminoacylation ribozyme variant]”, the self-aminoacylation turned out to be 2.09.
For “AUUACCCUGGUCGUCGUGUGA [Fam2.1 aminoacylation ribozyme variant]”, the self-aminoacylation was 9.58.
Then “CCACGCAUCAAGCAAUCGGUC [Fam1B.1 aminoacylation ribozyme variant]”, with 3.83; and “AAGUUUGCUAAAAGUCGCAUG [Fam3.1 aminoacylation ribozyme variant]”, with 2.71; and “AAGUCUGCUGAUAGUCGCAAG [Fam3.1 aminoacylation ribozyme variant]”, with 3.91.
In the case of “AGGUUUGUUAAUAGUCGCAAG [Fam3.1 aminoacylation ribozyme variant]”, the self-aminoacylation worked out at 3.87.
The result for “AAGAUGGCUAAUAGUCGCAAG [Fam3.1 aminoacylation ribozyme variant]” reads 2.14; that for “AUUUCCCUGGUCAUCGAGUUA [Fam2.1 aminoacylation ribozyme variant]”, 2.12.
Regarding “CUAGUUCAAACAAUCGGUAUG [Fam1A.1 aminoacylation ribozyme variant]”, the self-aminoacylation was determined as 3.27.
Regarding “AAGUUUCCAAAUAGUCGCAAG [Fam3.1 aminoacylation ribozyme variant]”, the self-aminoacylation worked out at 2.83.
The result for “CUCCUUCAAACAGUCGGUCUG [Fam1A.1 aminoacylation ribozyme variant]” reads 3.98; that for “GUACUGCAAACAAUCGGUCUG [Fam1A.1 aminoacylation ribozyme variant]”, 3.7.
Then “GUACUUCGAACAAUCGGUCUG [Fam1A.1 aminoacylation ribozyme variant]”, with 5.74.
For the sequence “AUUACCCUGGCCAUCGUGUGA [Fam2.1 aminoacylation ribozyme variant]”, the self-aminoacylation amounted to 6.7.
“AUUCACCUAGGUCGUCUGGUG [Fam2.2 aminoacylation ribozyme variant]”: the self-aminoacylation is 5.84.
With “AAGUCUCCUAAUAGUCGCAAG [Fam3.1 aminoacylation ribozyme variant]”, the self-aminoacylation came out at 3.11.
Turning to “ACGUUAGCUAAUAGUCGCAAG [Fam3.1 aminoacylation ribozyme variant]”, the self-aminoacylation was 3.08.
“CUACUUCAAAAACUCGGUCUG [Fam1A.1 aminoacylation ribozyme variant]”: the self-aminoacylation turned out to be 2.19.
Then “AAGUUUGCGCAUAGUCGCAAG [Fam3.1 aminoacylation ribozyme variant]”, with 2.97; and “CUACUUCCAACGAUCGGUCUG [Fam1A.1 aminoacylation ribozyme variant]”, with 3.05.
Consider “AAGUUUCCUAAUAGUCUCAAG [Fam3.1 aminoacylation ribozyme variant]”, for which the self-aminoacylation worked out at 2.15.
On to “AAGGUUGCUACUAGUCGCAAG [Fam3.1 aminoacylation ribozyme variant]”, for which the self-aminoacylation was 4.
Consider “AAGCUUACUAAUAGUCGCAAG [Fam3.1 aminoacylation ribozyme variant]”, for which the self-aminoacylation came to 3.02.
As for “CCACAUUUCAAGCAAUCGGUC [Fam1B.1 aminoacylation ribozyme variant]”, the self-aminoacylation turned out to be 3.26.
As for “GCACACUUCAAGCAAACGGUC [Fam1B.1 aminoacylation ribozyme variant]”, the self-aminoacylation is 2.05.
In the case of “AAUUUUGCUAAUGGUCGCAAG [Fam3.1 aminoacylation ribozyme variant]”, the self-aminoacylation is 3.61.
Take “AAGUUUACUAAUAGUCGUAAG [Fam3.1 aminoacylation ribozyme variant]”: the self-aminoacylation was 2.3.
As to “AUUCUCCUAGGUCAUCGGGUC [Fam2.2 aminoacylation ribozyme variant]”, the self-aminoacylation amounted to 4.09.
Take “AGUCACCUAGGUCAUCGUGUG [Fam2.2 aminoacylation ribozyme variant]”: the self-aminoacylation was 7.83.
In the case of “AAGUUUACUAAUAGUCGCACG [Fam3.1 aminoacylation ribozyme variant]”, the self-aminoacylation was determined as 2.22.
On to “AAGUUUGCUCACAGUCGCAAG [Fam3.1 aminoacylation ribozyme variant]”, for which the self-aminoacylation turned out to be 2.76.
For the sequence “CCACAUUUCAAGAAAUCGGUC [Fam1B.1 aminoacylation ribozyme variant]”, the self-aminoacylation was found to be 2.09.
The result for “CAACUUCAAACAAUCGAUCUG [Fam1A.1 aminoacylation ribozyme variant]” reads 3.33; that for “AAGCUUGCUAAUAGUCCCAAG [Fam3.1 aminoacylation ribozyme variant]”, 3.57; that for “AUUCACCUAGGUGAGCGGGUG [Fam2.2 aminoacylation ribozyme variant]”, 7.25.

The values above are taken from the supplement of paper PMC9233669.
